Measurements: patent US20230057263A1 (CYTOMX THERAPEUTICS, published 2023)
Residue numbers refer to the chain shown, from its start. Values belong to the binder of their own block, whether it stands above or below them. No end group written: not given here. *: point of attachment. Biotin = O=C1N[C@H]2[C@H](CS[C@H]2CCCCC(=O)*)N1; linker = not defined here

Columns and labels:
AGS73.15 (MS497) [1] = target: T1, AGS73.15 (MS497); experiment: flow cytometry, blocking of AGS73.15 binding to CD3ε on human T cells, % binding, the axis reads nM
T1 construct: It carries a human IgG Fc (detected with anti-human IgG Fc)

AGS73.15 (MS497) [2] = target: T1, AGS73.15 (MS497); experiment: flow cytometry, blocking of AGS73.15 (200 ng/ml) binding to CD3ε on human T cells; AGS73.15 detected with anti-human IgG Fc-PE
[3] = target: T2, biotinylated 15-mer peptide corresponding to the CD3ε N-terminus (human, UniProt P07766 22-36, limits assumed, not fully specified; reading uncertain); experiment: Luminex bead assay, peptide on streptavidin beads
T2 construct: domain: N-terminal 15-mer; Immobilised on streptavidin-conjugated Luminex beads; The text says 'peptides' in the plural, so more than one overlapping N-terminal 15-mer may be meant; also called N-terminal 15-mer; biotinylated N-terminal 15-mer
T2 peptide (looked up): {Biotin-linker}-QDGNEEMGGITQTPY
Method: A set of experiments was performed to map the epitope recognized by the anti-CD3ε antibodies. In these experiments, the anti-CD3ε antibodies were assessed for binding to a collection of overlapping 15-mer peptides spanning amino acids 1-27 of human CD3ε protein using a Luminex bead assay. Control CD3 proteins, control peptides, or the test peptides were immobilized on Luminex beads and incubated with a panel of anti-CD3 antibodies. Binding of the anti-CD3 antibodies to the peptide/protein immobilized on the Luminex bead was detected by R-Phycoerythrin conjugated secondary antibody.
Recombinant CD3 proteins (human CD3d/e heterodimer and cynomolgus CD3-epsilon (Sinobiological)) and control peptides (#p1, #p2, and #p3) were conjugated to Luminex beads using standard EDC/Sulfo-NHS chemistry. […] The Luminex beads with immobilized peptides or reagents were incubated with 50 ul of a panel of anti-CD3 antibodies (1 ug/ml) for one hour at room temperature, washed two times, incubated with mixture of anti-human and anti-mouse IgG-RPE (Jackson Immunoresearch 109-116-097 and Southern Biotech 1030-09, respectively) for 30 mins at RT, washed three times, and analyzed in the Luminex instrument to assess the level of bound anti-CD3 antibodies.

human CD3 epsilon (CD3ε) = target: T3, human CD3 epsilon (CD3ε) (human, UniProt P07766 23-207); experiment: flow cytometry on human T cells
T3 construct: Present on donor human T cells as part of the TCR-CD3 complex; also called CD3ε on human T cells
Method: (§1) In these experiments, human or cynomolgus T cells were incubated with an anti-CD3ε antibody and binding was assessed by flow cytometry.
(§2) Briefly, donor T cells from either human or cynomolgus donors were resuspended in FACS buffer containing 0.1% sodium azide and aliquoted in 100 μL volumes. For incubation, 100 μL aliquots of donor T cells were mixed with 50 μL of antibodies diluted in FACS buffer containing 0.1% sodium azide. The cells were then washed twice with FACS buffer containing sodium azide. The bound antibody was detected by incubating cells for 60 minutes with a 1:200 dilution of SAV-RPE (Invitrogen Cat No. SA10044, Lot. 1542820A) or 1:100 dilution of goat-anti-Mouse Fcγ-RPE (Jackson Cat. No. 115-116-071, Lot. 108668, diluted in 0.2% goat serum). The cells were washed, fixed, and analyzed with an Accuri Flow Cytometer.
(§3) Treatment with OKT3, SP34-2, and diL2K antibodies were used as positive controls for T cell binding. […] Treatment with OKT3, SP34-2, and diL2K antibodies were used as controls for T cell binding with only SP34-2 binding to cynomolgus T cells, as expected.

cynomolgus CD3-epsilon [4] = target: T4, cynomolgus CD3-epsilon (cynomolgus, UniProt Q95LI5 22-198); experiment: flow cytometry on cynomolgus T cells
T4 construct: whole, on cells; also called CD3ε on cynomolgus T cells / PBMCs
T4 sequence (Q95LI5 22-198): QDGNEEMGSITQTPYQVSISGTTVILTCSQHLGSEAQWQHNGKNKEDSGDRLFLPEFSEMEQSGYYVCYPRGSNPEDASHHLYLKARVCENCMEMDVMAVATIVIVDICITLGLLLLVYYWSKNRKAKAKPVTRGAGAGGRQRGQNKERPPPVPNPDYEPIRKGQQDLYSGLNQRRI
Method: as §1, §2, §3

cynomolgus CD3-epsilon [5] = target: T4, cynomolgus CD3-epsilon; experiment: flow cytometry, three-colour staining (CD3/CD4/CD8) of cynomolgus PBMCs of three donors
Method: Cross-reactivity of anti-CD3ε antibodies to cynomolgus CD3-epsilon was assessed by three-color phenotyping (CD3/CD4/CD8) using PBMCs from three different cynomolgus donors.
PBMCs from different cynomolgus donors were stained with anti-CD4, anti-CD8, and a panel of different anti-CD3 antibodies. For each anti-CD3 antibody, the CD3 positive cells were gated and assessed for their CD4/CD8 phenotype. FIG. 8A depicts the total CD3 positive cells in PBMCs from the three different donors. FIGS. 8B-8E show the percentage of CD3 positive cells displaying CD4−/CD8+, CD4+/CD8−, CD4+/CD8+, and CD4−/CD8− phenotypes, respectively.

EC50 (AGS73.15 (MS497) [1]): 0.443 nM | IC50 (read off the curve) (AGS73.15 (MS497) [2]): ~0.07 µg/mL
B1: 6d59.id.1b18.1 (antibody, V domains shown)
VH: DVLLQESGPGLVKPSQSLSLTCSVTGYSITSGHYWIWIRQFPGNKLEWMGYITYDGSNNYNPSLKKRISITRDTSENQFFLKLNPVTTEDTATYYCARDVADSYGNGYDAMDYWGQGTSVTVSS
VL: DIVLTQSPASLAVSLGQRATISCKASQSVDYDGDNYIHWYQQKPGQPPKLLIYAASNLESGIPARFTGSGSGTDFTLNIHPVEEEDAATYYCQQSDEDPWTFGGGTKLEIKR
notes: Anti-idiotypic antibody against 6d59

binding result [3]: no binding (tested: 1 ug/ml)
B2: 6d23 (antibody, V domains shown)
VH: QVQLVESGGGVVQPGRSLRLSCEASGFTFRSYGMHWVRQAPGKGLEWVAIIWYDGSNKYYGDSVKGRFTISRDNSKNTLSLQMNSLRAEDTAVYYCASLSVNDYYVLDVWGQGTTVTVSS
VL: DVVMTQSPFSLPVTLGQPASMSCRSSQSLVNSDGKTHLNWFQQRPGQSPRRLIYKVSNRDSGVPDRFSGSGSGTDFTLKISRVEAEDVGVYYCMQGTHWPLTFGGGTKVEIKR
notes: Anti-CD3ε antibody; also called 6d23.1; VCD3-6d23.1

EC50 (AGS73.15 (MS497) [1]): 0.56 nM | IC50 (read off the curve) (AGS73.15 (MS497) [2]): ~0.08 µg/mL
B3: 6d59.id.1b67.1 (antibody, V domains shown)
VH: QVTLKESGPGILKPSQTLSLTCSFSGFSLSTSGMGVGWIRQPSGKGLEWLAHIWWDDDKFYKPSLKNRLTISKDTSRNQVFLKITSVDTADAATYFCVRRSAYEAFTLDYWGQGTSVTVSS
VL: DIMLTQSPASLAVSLGQRATISCKASQSVDYDGNGYLNWYQQKPGQPPKLLIYAASNLESGIPARFSGSGSGTDFTLNIHPVEEEDVATYYCQQSSEDPFTFGSGTKLEIKR
notes: as for B1

EC50 (read off the curve) (human CD3 epsilon (CD3ε)): 1 to 3 nM | binding result (cynomolgus CD3-epsilon [4]): no binding
B4: 4b8 (antibody, V domains shown)
VH: EVQLVESGGGLVKPGGSLRLSCAASGFTFSSYSMNWVRQAPGKGLDWVSYISRSSNYTYYADSVMGRFTISRDNAKNSLYLQMNSLRAEDTAVYYCARDRRGYSGYNHFDYWGQGTLVTVSS
VL: DIQMTQSPSSLSASVGDRVTITCRASQSISNYLNWYQQKPGKAPKLLIYAASSLQSGVPSRFSGSRSGTDFTLTISSLQPEDFASYYCQQSFSTLYTFGQETKLEIKR
notes: Anti-CD3ε antibody

EC50 (AGS73.15 (MS497) [1]): 0.413 nM | IC50 (read off the curve) (AGS73.15 (MS497) [2]): ~0.07 µg/mL
B5: 6d59.id.1b54.1 (antibody, V domains shown)
VH: DVQLQESGPGLVKPSQSLSLTCSVTGYSITSSYYWNWIRQFPGNKLEWMGSIMYDGNNNYNPSLKNRISITRDTSKNQFFLKLNSVTTEDTATYYCARNMADYFGNTYDALDYWGQGTSVTVSS
VL: DILLTQSPGSLAVSLGQRATISCKASQSADYGGDSYMSWYQQKPGQPPKLLIYAASNLESGTPARFSGSGSGTDFTLNIHPVEEEDAATYYCQQGNEDPWTFGGGTKLEIKR
notes: as for B1

EC50 (AGS73.15 (MS497) [1]): 0.327 nM | IC50 (read off the curve) (AGS73.15 (MS497) [2]): ~0.06 µg/mL
B6: 6d59.id.1b71.1 (antibody, V domains shown)
VL: B3 VL with M3V, L37M, V87A, S96N, F100Y, S104G
V domain: EVQLQQSGSELASPGTSVKLSCKASGYTFTSYWVQWIKQRPGQGLEWIGAIYPGDGDLRSTQKFKGKATLTADKSSDTAYMQLSSLASEDSAVYYCARLDDFDLDYWGQGTTLIVSS
notes: as for B1

EC50 (AGS73.15 (MS497) [1]): 0.243 nM | IC50 (read off the curve) (AGS73.15 (MS497) [2]): ~0.05 µg/mL
B7: 6d59.id.1b76.1 (antibody, V domains shown)
VH: DVKLVDSGGGLVKPGGSLKLSCAASGFTFSNYGMSWVRQTPEKRLEWVATISSGGYYTYYPDSVKGRFTISRDNAKNTLYLQMGSLKSEDTAMYYCSRDREGFGNYLGAMDYWGQGTSVTVSS
VL: B3 VL with M3V, L37M, V87A, S96N, F100Y, S104G
notes: as for B1

EC50 (AGS73.15 (MS497) [1]): 0.335 nM | IC50 (read off the curve) (AGS73.15 (MS497) [2]): ~0.05 µg/mL
B8: 6d59.id.1b73.1 (antibody, V domains shown)
VH: QVQLQQSGPEVVKPGASVKMSCKASGYTFTDCVISWIKQRTGQGLEWIGEIHPGSGNTYNNEKFKGKATLTADKSSNTAYIQLSSLTSEDSAVYFCARVGDWYDDAMDYWGQGTSVTVSS
VL: B3 VL with M3V, L37M, V87A, S96N, F100Y, S104G
notes: as for B1

EC50 (AGS73.15 (MS497) [1]): 0.368 nM | IC50 (read off the curve) (AGS73.15 (MS497) [2]): ~0.06 µg/mL
B9: 6d59.id.1b61.1 (antibody, V domains shown)
VH: B5 VH with S51Y
VL: B5 VL
notes: as for B1

EC50 (read off the curve) (human CD3 epsilon (CD3ε)): ~0.05 nM | EC50 (read off the curve) (cynomolgus CD3-epsilon [4]): ~0.07 nM
B10: 6d58 (antibody, V domains shown)
VH: QVHLVESGGGVVQPGRSLRLSCAASGFKFRSYGMHWVRQAPGKGLEWVAIIWYDGSKRYYADSVKGRFTISRDNSKNTLYLQMSSLRAEDTAVYYCARDLITGTTDYWGQGTLVTVSS
VL: DVVMTQSPLSLPVTLGQPASISCRSSRSLVYSDGNTHLIWFQQRPGQSPRRLIYRVSNRVSGVPDRFSGSGSGTDFTLKISRVEAEDVGVYYCLQGAHWPYTFGQGTKLEIKR
notes: also called 6d58 (same as 6d59)

binding result (cynomolgus CD3-epsilon [5]): binds
B11: 1c144.1 (antibody, V domains shown)
VH: ELQLVESGGGLVQPGGSLRLSCAASGFNFRSYEMNWVRQAPGKGLEWVSYISSSSTTIYYAGSVKGRFTISRDNAKHSLYLQMNSLRAEDTAVYYCARDRGALDYWGQGTLVTVSS
VL: DIQMTQSPSSLSASVGDRVTITCQASQDIRKYLNWYQQKPGKAPKLLIYDASNLETGVPSRFSGSGSGTDFSFTISSLQPEDLATYYCQHYANLPPLFTFGPGTKVDIKR
notes: the sheet prints 1c144.1
